How the values were obtained:
[1] = biological target: MBP-RctB F311P (Vibrio cholerae); experiment: AUC
[2] = biological target: DnaK (added to the in vitro Co-IP reactions) (UniProt P0A6Y8); experiment: Co-IP (amylose magnetic beads, Western blot with α-DnaK); conditions: 1 µM RctB, 1 µM DnaJ, 2 µM DnaK, 100 µM ATP, buffer A pH 7.4, 4°C
[3] = biological target: MBP-RctB K312P (Vibrio cholerae); experiment: AUC
[4] = biological target: MBP-RctB S313P (Vibrio cholerae); experiment: AUC
[5] = biological target: MBP-RctB F316P (Vibrio cholerae); experiment: AUC
[6] = biological target: MBP-tagged RctB (wild type) (Vibrio cholerae (N16961 DNA as template)); experiment: AUC
[7] = biological target: RctB145–470 tryptic fragment (Vibrio cholerae); experiment: AUC; sedimentation velocity, 50,000 rpm, 20°C; 20 mM Tris pH 8.0, 300 mM NaCl, 1 mM TCEP, 1 mM EDTA, 5 mM MgCl2; multiple concentrations (Fig. S4A)

MBP-RctB F311P (natural protein)
stoichiometry N [1]: 2

MBP-tagged RctB (wild type) H157A; E158A; H159A; G160A; L161A; N162A; T163A
ratio to parent [2]: 0.3

MBP-RctB K312P (natural protein)
stoichiometry N [3]: 2

MBP-RctB S313P (natural protein)
stoichiometry N [4]: 2

MBP-tagged RctB (wild type) Q136A; N137A; E138A; K139A; Q140A; K141A; R142A
ratio to parent [2]: 0.8

MBP-tagged RctB (wild type) Q150A; V151A; N152A; Q153A; R154A; L155A; L156A
ratio to parent [2]: 0.4

MBP-RctB F316P (natural protein)
stoichiometry N [5]: 2

MBP-tagged RctB (wild type) P164A; P165A; M167A; K168A; D169A; E170A
ratio to parent [2]: 0.6

MBP-tagged RctB (wild type) S143A; K144A; L146A; Q148A; T149A
ratio to parent [2]: 0.8

MBP-tagged RctB (wild type) (natural protein)
stoichiometry N [6]: 2

RctB145–470 tryptic fragment (domain or fragment)
stoichiometry N [7]: 2

MBP-tagged RctB (wild type) L129A; V130A; T131A; E132A; S133A; V134A; K135A
ratio to parent [2]: 0.9

From paper PMC5395669
